Laboratory results published in US20050265970.

What was measured:
[1] = molecular target: T1, His6-Gadd45β (full-length human Gadd45β purified from E. coli), O75293
T1 chain: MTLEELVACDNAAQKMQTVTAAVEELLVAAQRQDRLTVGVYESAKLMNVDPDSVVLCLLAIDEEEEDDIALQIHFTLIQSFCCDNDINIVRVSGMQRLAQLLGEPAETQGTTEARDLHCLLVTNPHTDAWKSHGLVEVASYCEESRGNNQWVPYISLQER

[2] = molecular target: Gadd45β-derived peptide 2 (pure synthetic peptide, sequence in FIG. 37C)
[3] = molecular target: Gadd45β-derived peptide 8 (pure synthetic peptide, sequence in FIG. 37C)
[4] = molecular target: T2, GST-Gadd45β (full-length murine Gadd45β directly fused to GST), P22339
T2 chain: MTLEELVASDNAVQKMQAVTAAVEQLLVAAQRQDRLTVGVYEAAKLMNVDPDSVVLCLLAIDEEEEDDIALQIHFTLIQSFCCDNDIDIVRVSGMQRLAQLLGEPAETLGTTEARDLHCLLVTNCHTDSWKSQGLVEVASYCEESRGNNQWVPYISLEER

B1: FLAG-MKK7 (FLAG-tagged JNKK2) immunoprecipitated from 293 cells (protein)
chain: MAASSLEQKLSRLEAKLKQENREARRRIDLNLDISPQRPRPTLQLPLANDGGSRSPSSESSPQHPTPPARPRHMLGLPSTLFTPRSMESIEIDQKLQEIMKQTGYLTIGGQRYQAEINDLENLGEMGSGTCGQVWKMRFRKTGHVIAVKQMRRSGNKEENKRILMDLDVVLKSHDCPYIVQCFGTFITNTDVFIAMELMGTCAEKLKKRMQGPIPERILGKMTVAIVKALYYLKEKHGVIHRDVKPSNILLDERGQIKLCDFGISGRLVDSKAKTRSAGCAAYMAPERIDPPDPTKPDYDIRADVWSLGISLVELATGQFPYKNCKTDFEVLTKVLQEEPPLLPGHMGFSGDFQSFVKDCLTKDHRKRPKYNKLLEHSFIKRYETLEVDVASWFKDVMAKTESPRTSGVLSQPHLPFFR
**Q.** Which “GST-JNK1 phosphorylation by MKK7 (kinase assay)” value [1] does the source give for B1 here?
**A.** Both Gadd45β polypeptides, but neither GST nor His6-EF3, blocked GST-JNK1 phosphorylation by MKK7, in a dose-dependent manner

**Q.** And the “JNKK2 kinase activity in vitro (phosphorylation of GST-JNK1)” value [1]?
**A.** both GST-Gadd45β and His6-Gadd45β effectively suppressed JNKK2 activity, in vitro, even at the lowest concentrations that were tested

**Q.** What about the “MKK7 kinase assay with GST-JNK1 substrate” value [2] of the same protein?
**A.** the amino acid regions contained in the overlapping, Gadd45β-derived peptides 2 and 8 are sufficient to recapitulate most of the inhibitory activity of Gadd45β on MKK7

**Q.** What about the “MKK7 kinase assay with GST-JNK1 substrate” value [3] of the same protein?
**A.** the amino acid regions contained in the overlapping, Gadd45β-derived peptides 2 and 8 are sufficient to recapitulate most of the inhibitory activity of Gadd45β on MKK7

**Q.** And the “GST-JNK1 phosphorylation by MKK7 (kinase assay)” value [4]?
**A.** Both Gadd45β polypeptides, but neither GST nor His6-EF3, blocked GST-JNK1 phosphorylation by MKK7, in a dose-dependent manner

**Q.** What about the “JNKK2 kinase activity in vitro (phosphorylation of GST-JNK1)” value [4] of the same protein?
**A.** both GST-Gadd45β and His6-Gadd45β effectively suppressed JNKK2 activity, in vitro, even at the lowest concentrations that were tested
